# Data taken from US20220259593A1, “CONTROL OF MAMMALIAN GENE DOSAGE USING CRISPR” (The Regents of the University of California, priority 2019, published 2022).
# Test system: K562 CRISPRi cells
# Assay: Constant region variant library pooled growth screen, K562
# Type: cell-based, human
# Conditions: sgRNA constant region variants; activity relative to the original, un-modified constant region cr995
# Outline: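 Pooled library transduced into K562 CRISPRi cells in duplicate, puromycin-selected, grown at >2000× coverage and sampled after 4 to 8 days. Phenotypes per targeting sequence:constant region pair were normalized to the unmodified-scaffold pairing to give relative activity.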
row,Molecule,Mean relative activity
1,"cr097 (nucleic acid, listed as DNA, chemistry not fully specified) guide: GCTTACGAGCTAAGCTGGAAACAGCATAGCAAGTTTAAATAAGGCTAGTCCGTTATCAACTTGAAAAAGTGGCACCGAGTCGGTGCT",0.06585
2,"cr107 (nucleic acid, listed as DNA, chemistry not fully specified) guide: GTTTAAGAGCTAAGCTGGAAACAGCATAGCAAGTTTAAATAATGCTAGTCAGTTATCAACTTGAAAAAGTGGCAACGAGTCGTTGCT",0.03837
3,"cr188 (nucleic acid, listed as DNA, chemistry not fully specified) guide: GTTTAAGAGCTAAGCTGGAAACAGCATAGCAAGTTTAAATAATGCTAGTCAGTTATCAACCTGAAAAGGTGGCACCGAGTCGGTGCT",0.04409
4,"cr422 (nucleic acid, listed as DNA, chemistry not fully specified) guide: GTTTAAGAGCTAAGCTGGAAACAGCATAGCAAGTTTAAATAAGGCTAGTCCGTTATCAACTTGAAAAAGTGGTACCGAGTCGTTCCT",0.0493
5,"cr193 (nucleic acid, listed as DNA, chemistry not fully specified) guide: GTTTAAGAGCTAAGCTGGAAACAGCATAGCAAGTTTAAATAAAGCTAGTCTGTTATCAATTTGAAAAAATGCCACCGAGTCGGTGGT",0.06081
6,"cr764 (nucleic acid, listed as DNA, chemistry not fully specified) guide: GTTTAAGAGCTAAGCTGGAAACAGCATAGCAACTTTAAATAAGGCTAGTCCGTTATCAACTTGAAAAAGTGGCACCGAGTCGGTGCT",0.04863
7,"cr045 (nucleic acid, listed as DNA, chemistry not fully specified) guide: TTTTATGAGCTAAGCTGGAAACAGCATAGCAAGTTTAAATAAGGCTAGTCCGTTATCAACTTGAAAAAGTGGCACCGAGTCGGTGCT",0.04839
8,"cr741 (nucleic acid, listed as DNA, chemistry not fully specified) guide: GTTTAAGAGCTAAGCTGGAAACAGCATGGCAAGTTTAAATACGGCTAGACCGTTATCAACTTGAAAAAGTGGCACCGAGTCGGTGCT",0.06347
9,"cr928 (nucleic acid, listed as DNA, chemistry not fully specified) guide: GTTTAAGAGCTAAGCTGGAAACAGCATAGCTAGTTTAAATGAGGCTAGTCCGTAATCAACTTGAAAAAGTGGCACCGAGTCGGTGCT",0.05583
10,"cr138 (nucleic acid, listed as DNA, chemistry not fully specified) guide: GTTTAAGAGCTAAGCTGGAAACAGCATAGCAAGCTTAAATAAGGCTAGTCCGTTATCAACTTGAAAAAGTGGCACGGAGTCCGTGCT",0.04307
11,"cr708 (nucleic acid, listed as DNA, chemistry not fully specified) guide: GTTTAAGAGCTAAGCTGGAAACAGCATAGCAAGTTTAAATAATGCTAGTCAGTTATCAACTTGAAAAAGTGGCACCGAGTCGGTGCT",0.0394
12,"cr465 (nucleic acid, listed as DNA, chemistry not fully specified) guide: GTTTAAGAGCTAAGCTGGAAACAGCATAGCAAGCTTAAATAAGGATATTCCGTTATCAACTTGAAAAAGTGGCACCGAGTCGGTGCT",0.04864
13,"cr197 (nucleic acid, listed as DNA, chemistry not fully specified) guide: GTTTAAGAGCTAAGCTGGAAACAGCATAGCAAGTTTAAATAATGCTAGTCAGTTATCAACTGGAAACAGTGGCACCGAGTCGGTGCT",0.06436
14,"cr298 (nucleic acid, listed as DNA, chemistry not fully specified) guide: GTTTAAGAGCTAAGCTGGAAACAGCATAGCAAGTTTAAATAAGGCTAGTCCTTTATCAACTTGAAAAAGTGGCACCGACTCGGTGCT",0.06335
15,"cr222 (nucleic acid, listed as DNA, chemistry not fully specified) guide: GTTTAAGAGCTAAGCTGGAAACAGCATAGCAAGGTTAAATAAGGCTAGTCCGTTATCAGCTTGAAAAAGCGGCACCGAGTCGGTGCT",0.03915
16,"cr767 (nucleic acid, listed as DNA, chemistry not fully specified) guide: GTTTAAGAGCTAAGCTGGAAACAGCATAGCAAGATTAAATAAGGCTAGTCCGTTATCAACTTGAAAAAGTGGCACCGTGTCGGTGCT",0.0381

row,Molecule,Mean relative activity
1,"cr335 (nucleic acid, listed as DNA, chemistry not fully specified) guide: GTTTAAGAGCTAAGCTGGAAACAGCATAGCAAGTTTAAATAAGGCTAGTCCGTTATCAACTTGAAAAAGTGACGCCGAGTCGGCGTT",1.036
2,"cr625 (nucleic acid, listed as DNA, chemistry not fully specified) guide: GTTTAAGAGCTAAGCTGGAAACAGCATAGCAAGCTTAAATAAGGCTAGTCCGTTATCAACTTGAAAAAGTGGCACCTAGTAGGTGCT",0.04332
3,"cr514 (nucleic acid, listed as DNA, chemistry not fully specified) guide: GTTTAAGAGCTAAGCTGGAAACAGCATAGCAACTTTAAATAAGGCTAGTCCGTTATCAACTTGAAAAAGTGGGACCGAGTCGGTCCT",0.05776
4,"cr776 (nucleic acid, listed as DNA, chemistry not fully specified) guide: GTTTAAGAGCTAAGCTGGAAACAGCATAGCAAGTTTAAATAAGGCTAGTCCGTTATCATCTAGAAATAGAGGCACCGAGTCGGTGCT",1.037
5,"cr050 (nucleic acid, listed as DNA, chemistry not fully specified) guide: CTTTAGGAGCTAAGCTGGAAACAGCATAGCAAGTTTAAATAAGGCTAGTCCGTTATCAACTTGAAAAAGTGGCACCGAGTCGGTGCT",0.04785
6,"cr677 (nucleic acid, listed as DNA, chemistry not fully specified) guide: GTTTAAGAGCTAAGCTGGAAACAGCATAGCAAGTTTAAATTAGGCTAGTCCGTTATCAACTTGAAAAAGTGGCACCGAGTCGGTGCT",0.04623
7,"cr498 (nucleic acid, listed as DNA, chemistry not fully specified) guide: GTTTAAGAGCTAAGCTGGAAACAGCATAGCAAGTTTAATTAAGGCTAGTCCGTTATCAACTTGAAAAAGTGGCACCGAGTCGGTGCT",0.03563
8,"cr211 (nucleic acid, listed as DNA, chemistry not fully specified) guide: GTTTAAGAGCTAAGCTGGAAACAGCATAGCAAGTTTAAATAAGTCTAGTCCGTTATCAACTTGAAAAAGTGGCACCGAGTCGGTGCT",0.04075
9,"cr419 (nucleic acid, listed as DNA, chemistry not fully specified) guide: GTTTAAGAGCTAAGCTGGAAACAGCATAGCAACTTTAAATAAGGCTAGTCCGTTATCAACTTGAAAAAGTGGAACCGAGTCGGTTCT",0.05682
10,"cr115 (nucleic acid, listed as DNA, chemistry not fully specified) guide: GTTTAAGAGCTAAGCTGGAAACAGCATAGCAAGTTTAAATAATGCTAGTCAGTTATCAACTCGAAAGAGTGGCACCGAGTCGGTGCT",0.05506
11,"cr078 (nucleic acid, listed as DNA, chemistry not fully specified) guide: GTTTTGGAGCTAAGCTGGAAACAGCATAGCAAGTTTAAATAAGGCTAGTCCGTTATCAACTTGAAAAAGTGGCACCGAGTCGGTGCT",0.03507
12,"cr061 (nucleic acid, listed as DNA, chemistry not fully specified) guide: GTTCAACAGCTAAGCTGGAAACAGCATAGCAAGTTTAAATAAGGCTAGTCCGTTATCAACTTGAAAAAGTGGCACCGAGTCGGTGCT",0.05691
13,"cr467 (nucleic acid, listed as DNA, chemistry not fully specified) guide: GTTTAAGAGCTAAGCTGGAAACAGCATAGCAAGCTTAAATAAGGCTAGTCCGTTATCAATTTGAAAAAATGGCACCGAGTCGGTGCT",0.06565
14,"cr208 (nucleic acid, listed as DNA, chemistry not fully specified) guide: GTTTAAGAGCTAAGCTGGAAACAGCATAGCAAGTTTAAATAAGGCTAGTCCTTCATCAACTTGAAGAAGTGGCACCGAGTCGGTGCT",0.03711
15,"cr681 (nucleic acid, listed as DNA, chemistry not fully specified) guide: GTTTAAGAGCTAAGCTGGAAACAGCATAGCAAGTTTAAATAAGGCTACTCCGTTATTAACTTGAAAAAGTGGCACCGAGTCGGTGCT",0.03559
